Measurements taken from paper PMC2805030 (2010).

Molecular target: T1, RXRα LBD 226-462 (Homo sapiens, UniProt P19793)
T1 chain: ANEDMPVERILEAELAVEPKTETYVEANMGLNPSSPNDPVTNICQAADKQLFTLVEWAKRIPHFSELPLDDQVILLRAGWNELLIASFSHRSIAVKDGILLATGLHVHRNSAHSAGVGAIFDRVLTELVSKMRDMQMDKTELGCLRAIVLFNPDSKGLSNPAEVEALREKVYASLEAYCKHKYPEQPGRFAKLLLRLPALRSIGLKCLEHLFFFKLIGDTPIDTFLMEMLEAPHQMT
Assay: sedimentation equilibrium analytical ultracentrifugation

B1: RXRα LBD 226-462 (protein)
chain: ANEDMPVERILEAELAVEPKTETYVEANMGLNPSSPNDPVTNICQAADKQLFTLVEWAKRIPHFSELPLDDQVILLRAGWNELLIASFSHRSIAVKDGILLATGLHVHRNSAHSAGVGAIFDRVLTELVSKMRDMQMDKTELGCLRAIVLFNPDSKGLSNPAEVEALREKVYASLEAYCKHKYPEQPGRFAKLLLRLPALRSIGLKCLEHLFFFKLIGDTPIDTFLMEMLEAPHQMT
modifications: fluorescein-labeled
  Kd: 832 nM
